Biological target: full-length KIT(T417I,Δ418-419) (kinase-inactive K623A) (human)
Assay: cryo-EM structure

- stoichiometry N: 2
Substance: full-length KIT(T417I,Δ418-419) (kinase-inactive K623A) (receptor)

— paper doi:10.1101/2022.09.08.506998
